Data reported in paper PMC10564622 (Free Radical Biology & Medicine, 2023).
Values joined by “and” are separate entries in the source; they are usually repeats but may differ in a detail not shown here. Equal entries are not always repeated.

What was measured:
Settings in all cases: both partners purified
AF488-labeled CUL3NTD [1] = target: T1, AF488-labeled CUL3NTD (human, UniProt Q13618 1-388, I342R | L346D, AF488 by direct acylation with AF488-Tfp (sites not given)); test: FRET or BRET; TR-FRET protein displacement assay: CoraFluor-1-labeled KEAP1FL + AF488-labeled CUL3NTD, unlabeled protein titrated (cmax 25 μM); assay buffer pH 7.5, 2 h, room temperature; KD from IC50 by Cheng-Prusoff
T1 construct: human CUL3, Uniprot Q13618, residues 1–388, vector pNIC-CTHF, with stabilising mutations I342R and L346D; also called AF488-CUL3NTD; source: E. coli BL21(DE3)-pRARE2, purified (nickel sepharose, TEV cleavage, SEC), labeled with AF488-Tfp; not shown: His6, C-terminal, cleaved; FLAG, C-terminal, cleaved

AF488-labeled CUL3NTD [2] = target: T1, AF488-labeled CUL3NTD; test: FRET or BRET; TR-FRET protein displacement assay: CoraFluor-1-labeled KLHL11_(BTB-BACK) + AF488-labeled CUL3NTD, unlabeled protein titrated (cmax 25 μM); assay buffer pH 7.5, 2 h, room temperature; KD from IC50 by Cheng-Prusoff
[3] = target: biotinylated CUL3NTD (residues 1–389) (human, UniProt Q13618 1-389, I342R | L346D, biotin (on the avi tag)); test: BLI; biotinylated CUL3NTD immobilised on streptavidin tips, KEAP1_(BTB-3-box) in serial dilution; 50 mM HEPES, 300 mM NaCl, 0.5 mM TCEP, 10 mM DTT, 0.01% TWEEN-20; steady-state and kinetic fits, 1:1 model; apparent
[4] = target: T2, CUL3NTD (CUL3 N-terminal domain, residues 1–388, I342R L346D) (human, UniProt Q13618 1-388, I342R | L346D); test: crystal structure; KEAP1_(BTB-3-box) and CUL3NTD mixed 1:1, purified by SEC; sitting drop at 20 °C, 20% PEG 3350, 10% ethylene glycol, 0.2 M potassium citrate tribasic; 3.45 Å, space group C2 2 2_(1)
T2 construct: human CUL3, Uniprot Q13618, residues 1–388, vector pNIC-CTHF, with stabilising mutations I342R and L346D (split-n-express); source: E. coli BL21(DE3)-pRARE2, purified (nickel sepharose, TEV cleavage, SEC); not shown: His6, C-terminal, cleaved; FLAG, C-terminal, cleaved
T2 sequence (Q13618 1-388 I342R/L346D): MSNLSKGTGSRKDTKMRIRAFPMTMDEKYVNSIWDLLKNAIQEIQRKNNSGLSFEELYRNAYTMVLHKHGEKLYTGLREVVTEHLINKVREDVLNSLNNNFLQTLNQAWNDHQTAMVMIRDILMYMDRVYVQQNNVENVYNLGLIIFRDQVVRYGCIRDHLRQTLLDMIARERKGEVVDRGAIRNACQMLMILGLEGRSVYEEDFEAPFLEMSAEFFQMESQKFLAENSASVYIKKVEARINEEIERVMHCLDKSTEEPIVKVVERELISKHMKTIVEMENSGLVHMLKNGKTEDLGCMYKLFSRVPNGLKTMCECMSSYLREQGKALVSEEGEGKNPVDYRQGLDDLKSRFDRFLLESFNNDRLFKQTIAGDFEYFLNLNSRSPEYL

T1 sequence (Q13618 1-388 I342R/L346D): as above
biotinylated CUL3NTD (residues 1–389), sequence (Q13618 1-389 I342R/L346D): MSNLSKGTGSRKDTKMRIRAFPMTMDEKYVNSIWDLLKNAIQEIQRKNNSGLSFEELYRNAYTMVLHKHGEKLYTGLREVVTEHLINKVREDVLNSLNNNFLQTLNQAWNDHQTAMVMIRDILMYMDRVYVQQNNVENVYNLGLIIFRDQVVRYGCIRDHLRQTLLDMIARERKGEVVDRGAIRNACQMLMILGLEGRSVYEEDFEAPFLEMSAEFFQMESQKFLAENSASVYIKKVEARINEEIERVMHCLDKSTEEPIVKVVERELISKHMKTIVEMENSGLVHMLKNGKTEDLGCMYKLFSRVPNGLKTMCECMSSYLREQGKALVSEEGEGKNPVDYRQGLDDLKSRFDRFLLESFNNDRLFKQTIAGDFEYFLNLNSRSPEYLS

B1: KEAP1_(BTB-3-box) (human KEAP1 residues 48–213) (domain or fragment, UniProt Q14145 48-213, looked up)
chain: GNRTFSYTLEDHTKQAFGIMNELRLSQQLCDVTLQVKYQDAPAAQFMAHKVVLASSSPVFKAMFTNGLREQGMEVVSIEGIHPKVMERLIEFAYTASISMGEKCVLHVMNGAVMYQIDSVVRACSDFLVQQLDPSNAIGIANFAEQIGCVELHQRAREYIYMHFGE
notes: human KEAP1 (KLHL19), Uniprot Q14145, residues 48–213 (BTB and 3-box), vector pNIC28-Bsa4; Homodimer through the BTB domain by crystallographic symmetry; Residues 51–204 modelled in the structure; also called BTB and 3-box domains of human KEAP1; source: E. coli BL21(DE3)-pRARE2, purified (nickel sepharose, TEV cleavage, SEC); not shown: His6, N-terminal, cleaved
For B1, the Kd (AF488-labeled CUL3NTD [1]) was 1.04 µM, the Kd (AF488-labeled CUL3NTD [2]) was 0.72 µM and the Kd [3] was 1.7 µM and 1.4 µM. The “stoichiometry N” value [4] was 1 KEAP1 per CUL3 (printed as 2:2).
